# Measurements: publication PMC12204359, “Mechanistic Design of Cell-Penetrating Disruptors for a Phospho-Dependent Interaction” (Research Square, 2025)
# Positions of bridges follow the written chain, without caps; N, C: chain ends. Non-standard residues stand in square brackets, D forms with d. Primed or numbered codes have the meaning given here. No end group written: not given here. FAM″ = 5(6)-carboxyfluorescein label; pS = N[C@@H](COP(=O)(O)O)C(=O)O; FAM = 5(6)-carboxyfluorescein; S5 = C=CCCC[C@](C)(N)C(=O)O
# T1: clathrin heavy chain minimal ankle region (CHC^ankle, aa 358–574) (human, UniProt Q00610 358-574)
# T1 construct: modified pGEX vector with a TEV-cleavable GST tag; also called CHC ankle region protein; WT CHC
# T1 sequence (looked up): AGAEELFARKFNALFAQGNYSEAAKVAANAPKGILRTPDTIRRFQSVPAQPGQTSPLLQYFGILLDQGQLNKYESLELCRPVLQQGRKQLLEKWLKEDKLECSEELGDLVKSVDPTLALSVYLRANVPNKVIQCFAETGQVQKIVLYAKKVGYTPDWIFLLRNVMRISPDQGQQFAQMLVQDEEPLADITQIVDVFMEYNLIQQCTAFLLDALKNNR
# T2: biotinylated Avi-tagged ankle region of clathrin (aa 358–574) (human, UniProt Q00610 358-574, biotin)
# T2 construct: held on a streptavidin chip (SPR) or detected with an anti-biotin antibody (peptide arrays)
# T2 sequence (looked up): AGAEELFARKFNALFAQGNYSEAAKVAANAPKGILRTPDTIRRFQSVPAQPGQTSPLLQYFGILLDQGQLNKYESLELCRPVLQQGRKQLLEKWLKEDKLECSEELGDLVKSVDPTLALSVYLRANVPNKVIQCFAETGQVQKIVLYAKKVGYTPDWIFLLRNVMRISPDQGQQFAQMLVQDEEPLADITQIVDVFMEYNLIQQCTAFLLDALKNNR
# Molecular target: T1, clathrin heavy chain minimal ankle …
# Experiment: NMR titration; CHC titrated into ~140 μM 15N-labelled GB1-TACC3 or GB1-pTACC3 to a 1:5 CHC:TACC3 molar ratio; loss of 1H–15N HSQC peak intensity
# Details: both partners purified
row,binding result,Binder
1,binds,"GTSSFKESALRKQ[pS]LYLKFDPLLRDSPGR (domain or fragment, human, UniProt Q9Y6A5 545-573, looked up, also: 15N/13C labelled, human TACC3 aa 545-573 (the results say aa 546-573), pS558, fused to the small protein GB1; also called phosphorylated GB1-TACC3 CID; source: E. coli BL21 (DE3) RIL, purified; phosphorylated in situ with Aurora-A (122–403) and TPX2 (1–43); not shown: His-NusA, N-terminal, cleaved) [GB1-pTACC3]"

# Molecular target: T1, clathrin heavy chain minimal ankle …
# Experiment: fluorescence polarisation; direct binding, FAM-labelled TACC3 peptides and CHC protein; 20 mM HEPES pH 7.5, 150 mM NaCl, 5 mM DTT, 0.05% Tween-20; triplicate; one-site specific binding model
# Details: both partners purified
row,Kd [µM],Binder
1,26,"{FAM}-FKESALAKQ[pS]LYLAFDPLLRDS (peptide, UniProt Q9Y6A5 549-570, looked up, human TACC3 CID, aa 549-570, pS558, R555A and K562A; also called R555A K562A^pTACC3; source: synthetic peptide, bought: PPR, Alta Bioscience or Biomatik Corporation) [FAM-pTACC3 CID R555A K562A peptide]"
2,52,"{FAM}-FKESALAKQ[pS]LYLKFDPLLRDS (peptide, UniProt Q9Y6A5 549-570, looked up, human TACC3 CID, aa 549-570, pS558, R555A; also called R555A^pTACC3; source: synthetic peptide, bought: PPR, Alta Bioscience or Biomatik Corporation) [FAM-pTACC3 CID R555A peptide]"

# The remaining lines, values behind:
row,Binder,Kd [µM]
1,{FAM″}-KESALRK[S5]ELL[S5]EADPAFRDS-NH2 (staple 8-12) [negative control SP TACC3 (F563A & L566A)],~750
2,"{FAM}-FKESALRKQSLYLAFDPLLRDS (peptide, UniProt Q9Y6A5 549-570, looked up, human TACC3 CID, aa 549-570, K562A, no phosphate; also called K562A^TACC3; source: synthetic peptide, bought: PPR, Alta Bioscience or Biomatik Corporation) [FAM-TACC3 CID K562A peptide, unphosphorylated]",146
3,"{FAM}-FKESALRKQELYLKFDPLLRDS (peptide, UniProt Q9Y6A5 549-570, looked up, human TACC3 CID, aa 549-570, S558E; also called phosphomimetic glutamic acid variant; S558E TACC3^CID; source: synthetic peptide, bought: PPR, Alta Bioscience or Biomatik Corporation) [FAM-TACC3 CID S558E peptide]",314
4,"{FAM}-FKESALRKQ[pS]LYLAFDPLLRDS (peptide, UniProt Q9Y6A5 549-570, looked up, human TACC3 CID, aa 549-570, pS558, K562A; also called K562A^pTACC3; source: synthetic peptide, bought: PPR, Alta Bioscience or Biomatik Corporation) [FAM-pTACC3 CID K562A peptide]",23

# Molecular target: T2, biotinylated Avi-tagged ankle region of …
# Experiment: peptide or protein array; peptides synthesised on cellulose membrane; 1 μM biotinylated clathrin 358–574 in 20 mM HEPES pH 7.5, 150 mM NaCl, 5 mM DTT, 0.05% Tween-20, 1 h room temperature; anti-biotin HRP
# Details: both partners purified
row,binding result,Binder
1,binds,"KESALRKQDLWLLFDPLLR (peptide, UniProt Q9Y6A5 550-568, looked up, also: 8-amino-3,6-dioxaoctanoic acid spacer to cellulose membrane, end not given here, human TACC3 aa 550-568 with S558D, Y560W, K562L; source: synthesised on cellulose membrane (MultiPep 2)) [array peptide TACC3 550–568 S558D Y560W K562L]"
2,binds,"KESALRKQDLWLLFDPLFR (peptide, UniProt Q9Y6A5 550-568, looked up, also: 8-amino-3,6-dioxaoctanoic acid spacer to cellulose membrane, end not given here, human TACC3 aa 550-568 with S558D, Y560W, K562L, L567F; source: synthesised on cellulose membrane (MultiPep 2)) [array peptide TACC3 550–568 S558D Y560W K562L L567F]"
3,binds,"KESALRKQDLLLEFDPLLR (peptide, UniProt Q9Y6A5 550-568, looked up, also: 8-amino-3,6-dioxaoctanoic acid spacer to cellulose membrane, end not given here, human TACC3 aa 550-568 with S558D, Y560L, K562E; source: synthesised on cellulose membrane (MultiPep 2)) [array peptide TACC3 550–568 S558D Y560L K562E]"
4,binds,"KESALRKQDLLLLFDPLFR (peptide, UniProt Q9Y6A5 550-568, looked up, also: 8-amino-3,6-dioxaoctanoic acid spacer to cellulose membrane, end not given here, human TACC3 aa 550-568 with S558D, Y560L, K562L, L567F; source: synthesised on cellulose membrane (MultiPep 2)) [array peptide TACC3 550–568 S558D Y560L K562L L567F]"

# Continued, binder first:
row,Binder,binding result
1,"KESALRKQDLLLLFDPLLR (peptide, UniProt Q9Y6A5 550-568, looked up, also: 8-amino-3,6-dioxaoctanoic acid spacer to cellulose membrane, end not given here, human TACC3 aa 550-568 with S558D, Y560L, K562L; source: synthesised on cellulose membrane (MultiPep 2)) [array peptide TACC3 550–568 S558D Y560L K562L]",binds
2,"KESALRKQDLILLFDPLFR (peptide, UniProt Q9Y6A5 550-568, looked up, also: 8-amino-3,6-dioxaoctanoic acid spacer to cellulose membrane, end not given here, human TACC3 aa 550-568 with S558D, Y560I, K562L, L567F; source: synthesised on cellulose membrane (MultiPep 2)) [array peptide TACC3 550–568 S558D Y560I K562L L567F]",binds
3,"KESALRKQDLLLQFDPLLR (peptide, UniProt Q9Y6A5 550-568, looked up, also: 8-amino-3,6-dioxaoctanoic acid spacer to cellulose membrane, end not given here, human TACC3 aa 550-568 with S558D, Y560L, K562Q; source: synthesised on cellulose membrane (MultiPep 2)) [array peptide TACC3 550–568 S558D Y560L K562Q]",binds
4,"KESALRKQDLILLFDPLLR (peptide, UniProt Q9Y6A5 550-568, looked up, also: 8-amino-3,6-dioxaoctanoic acid spacer to cellulose membrane, end not given here, human TACC3 aa 550-568 with S558D, Y560I, K562L; source: synthesised on cellulose membrane (MultiPep 2)) [array peptide TACC3 550–568 S558D Y560I K562L]",binds
5,"KESALRKQDLLLIFDPLLR (peptide, UniProt Q9Y6A5 550-568, looked up, also: 8-amino-3,6-dioxaoctanoic acid spacer to cellulose membrane, end not given here, human TACC3 aa 550-568 with S558D, Y560L, K562I; source: synthesised on cellulose membrane (MultiPep 2)) [array peptide TACC3 550–568 S558D Y560L K562I]",binds
6,"KESALRKQDLLLEFDPLFR (peptide, UniProt Q9Y6A5 550-568, looked up, also: 8-amino-3,6-dioxaoctanoic acid spacer to cellulose membrane, end not given here, human TACC3 aa 550-568 with S558D, Y560L, K562E, L567F; source: synthesised on cellulose membrane (MultiPep 2)) [array peptide TACC3 550–568 S558D Y560L K562E L567F]",binds
7,"KESALRKQDLLLIFDPLFR (peptide, UniProt Q9Y6A5 550-568, looked up, also: 8-amino-3,6-dioxaoctanoic acid spacer to cellulose membrane, end not given here, human TACC3 aa 550-568 with S558D, Y560L, K562I, L567F; source: synthesised on cellulose membrane (MultiPep 2)) [array peptide TACC3 550–568 S558D Y560L K562I L567F]",binds
8,"KESALRKQDLLLQFDPLFR (peptide, UniProt Q9Y6A5 550-568, looked up, also: 8-amino-3,6-dioxaoctanoic acid spacer to cellulose membrane, end not given here, human TACC3 aa 550-568 with S558D, Y560L, K562Q, L567F; source: synthesised on cellulose membrane (MultiPep 2)) [array peptide TACC3 550–568 S558D Y560L K562Q L567F]",binds
